Assay in all cases: split reporter
For test [1], the target named is zipped β1–10 of ZipGFP with TEV cleavage sequence (E5-β1–10-K5), cleaved by co-expressed TEV protease.
The target in test [2] is zipped β1–10 of the ZipGFP caspase reporter (E5-β1–10-K5 with DEVD), cleaved upon apoptosis.
Test [3] concerns the target β1–10 part of ZipGFP with TEV cleavage sequence (E5-β1–10-K5), cleaved by TEV protease, purified.

“zipped β11 of ZipGFP with TEV cleavage sequence (K5-β11-E5), cleaved by co-expressed TEV protease”: the fold increase of green fluorescence over the uncleaved reporter in test [1] came to 10 fold. Substance “zipped β11 of the ZipGFP caspase reporter (K5-β11-E5 with DEVD), cleaved upon apoptosis” gave a fold increase of green fluorescence (normalized to mCherry) upon apoptosis in test [2] of 5 to 10 fold. In test [3], “β11 part of ZipGFP with TEV cleavage sequence (K5-β11-E5), cleaved by TEV protease, purified” gave a time to half-maximal fluorescence (T1/2) after mixing of 40 min.
